The results in this text go back to the supplement of paper PMC9170038.

This series deals with MS2 coat protein. In words: apparent KD of MS2 coat protein; designed switch direction (-1 OFF switch, 1 ON switch): -1; higher = weaker reporter binding. An outline of the steps:
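RNA switches sharing common flanks were transcribed by stalled E. coli RNA polymerase on Illumina chips. A doubling series of SNAP-549-labelled MS2 coat protein, from 0.7 or 1.5 nM to 3 µM, was applied in Tris-HCl pH 7.5 buffer with KCl, MgCl2, BSA, DTT, tRNA and Tween-20. Each step lasted 0.8–1.5 h at the bottom of the series and 10–20 min at the top. Normalised cluster fluorescence was curve-fitted, giving apparent KD as the per-design median over clusters.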

[1] abbreviates: input ligand: microRNA oligo, concentration not stated.
[2] abbreviates: Eterna round: R95, input ligand: microRNA oligo, concentration not stated.
[3] abbreviates: Eterna round: R95, input ligand: FMN 200 uM.
The mark [4] stands for this setting: Eterna round: R95, input ligand: none.

In the case of “GGUCAGACGGUAGGAUAUCUAUAUCGAGUGACCCUUUCAUAACAUGAGGAUCACCCAUGUCGGUGGGAGAAGGGCCGUACGGCG [salish99_ExNG02_R04_007] (Eterna round: R96, puzzle: Exclusion NG 2)”, the “apparent KD of MS2 coat protein” value was found to be 62.5 nM (input ligand: FMN 200 uM), 31.6 nM under setting [1] and 42.2 nM (input ligand: none).

As for “GGUCAGAUGGUAGGAUAUCCAUAUCGAGUGACCUUUUCAUAACAUGAGGAUCACCCAUGUCGGUGGGAGAAGGGCCGUACGGCG [salish99_ExNG02_R04_017] (Eterna round: R96, puzzle: Exclusion NG 2)”, the “apparent KD of MS2 coat protein” value (input ligand: FMN 200 uM) is 120 nM, the “apparent KD of MS2 coat protein” value under setting [1] amounted to 79 nM and the “apparent KD of MS2 coat protein” value (input ligand: none) was found to be 112 nM.

Regarding “GGUCCUGAUGAUUUCCUAUACAUGAGGAUCACCCAUGUAUGUGUAUUUUGUUUUUCGCUUUUUGGUCGUCAAUAAUA [Mod-Hoo-honey-2] (Eterna round: R97, puzzle: Sensor, turn-off variant 1)”, the “apparent KD of MS2 coat protein” value was found to be 32.6 nM (input ligand: FMN 200 uM) and 33.4 nM (input ligand: none).

Regarding “GGUGAGCGAGGAUAUACAUGAGGAUCACCCAUGUGACGCUGUCCUUGGAAGAACCUCUGUAGAAGGCGCGGAAU [Veisrien] (Eterna round: R97, puzzle: Exclusion 3)”, the “apparent KD of MS2 coat protein” value runs as follows: (input ligand: FMN 200 uM) 23.5 nM; (input ligand: none) 162 nM.

As for “GGUGCACAUGAGGAUCACCCAUGUCAGGAUAUGUUACCACGUUACGAUCGAGUGACGAGCAGAAGGGACUGCAU [Eternabot (L2) Solution 68] (Eterna round: R97, puzzle: Exclusion 1)”, the “apparent KD of MS2 coat protein” value was found to be 39.4 nM (input ligand: FMN 200 uM) and 29.6 nM (input ligand: none).

Turning to “GGUGCGUAUGUGAGGAUAUGCUGGUCCUUGGCUCGGCAGAAGGCACAUGAGGAUCACCCAUGUGGUGUCGUACA [salish99_Bmod_ex4_072] (puzzle: Brourd's mod of Exclusion 4)”, the “apparent KD of MS2 coat protein” value under setting [2] turned out to be 73.5 nM.

For the sequence “GGUGGACAUGAGGAUCACCCAUGUGAGGAUAUCGGCCGGUUCGUGGUGGCUGGCUUCUCGAGAAGGCGCAUAGU [Exclusion 1 V74] (puzzle: Exclusion 1)”, the “apparent KD of MS2 coat protein” value under setting [2] amounted to 46.4 nM.

As to “GGUGGACAUGAGGAUCACCCAUGUGAGGAUAUCGGCUGGCUACUGGCUGACGGCUGCUCGAGAAGGCGCAUUGU [Exclusion 1 V87] (puzzle: Exclusion 1)”, the “apparent KD of MS2 coat protein” value under setting [2] amounted to 38.4 nM.

Regarding “GGUGGGCUAGGAUAUGCUUUGGGUGGGCAUUCCUUCGAUAAACUUGAGGAUCACCCAAGUAGAAGGAGCUUGCC [salish99_ex2_r4_023] (Eterna round: R97, puzzle: Exclusion 2)”, the “apparent KD of MS2 coat protein” value by setting is: (input ligand: FMN 200 uM) 21.8 nM; (input ligand: none) 35.4 nM.

Consider “GGUGGUAUUGUUAGGAUAUGGCAUGCCCGAGGCGUCUAGAAGGGACAUGAGGAUCACCCAUGUCUAGAAUUAAU [Eternabot (L2) Solution 53] (Eterna round: R97, puzzle: Brourd's mod of Exclusion 4)”, for which the “apparent KD of MS2 coat protein” value reads like this: (input ligand: FMN 200 uM) 41.2 nM; (input ligand: none) 45.5 nM.

Turning to “GGUGUCUUCAGAAGACAUGAGGAUCACCCAUGUAAAUGCACUGAGGAUAUACGGGCGACCGGCGUGUAGAAGGUAGAGCACGAA [Bivezale] (Eterna round: R96, puzzle: Exclusion NG 3)”, the “apparent KD of MS2 coat protein” value reads like this: (input ligand: FMN 200 uM) 13.7 nM; under setting [1], 8.37 nM; (input ligand: none) 17.5 nM.

In the case of “GGUUAGGCAGGAUAUACCCACAGUGUCUGUAGAAUCGCAAGACAUGAGGAUCACCCAUGUAGAAGGGCCGACCG [Eternabot (L1) Solution 1] (Eterna round: R97, puzzle: Exclusion 2)”, the “apparent KD of MS2 coat protein” value is, setting by setting: (input ligand: FMN 200 uM) 184 nM; (input ligand: none) 273 nM.

In the case of “GGUUGACAUGAGGAUCACCCAUGUGAGGAUAUGCGAGAGAAAAAAGUGAGGAAGAAACGCAGAAGGCGCUGUCG [salish99-ex1_r3_010] (puzzle: Exclusion 1)”, the “apparent KD of MS2 coat protein” value reads like this: under setting [3], 59.3 nM; under setting [2], 163 nM; under setting [4], 133 nM.

In the case of “GGUUGGCGAGGAUAUACAUGAGGAUCACCCAUGUGAGAAAAUAAGUGAGGAAAGAAAAGUAGAAGGCGCUGACG [Mat - Exclusion 3 - Mod of Salish D53] (puzzle: Exclusion 3)”, the “apparent KD of MS2 coat protein” value runs as follows: under setting [3], 570 nM; under setting [2], 55.8 nM; under setting [4], 37.1 nM.

“GGUUGGCGAGGAUAUACAUGAGGAUCACCCAUGUGAGAGAAAAACGUGAGGAAGAAAAGUAGAAGGCGCUGACG [salish99_ex3_r3_025] (puzzle: Exclusion 3)”: the “apparent KD of MS2 coat protein” value under setting [3] was 36.4 nM, the “apparent KD of MS2 coat protein” value under setting [2] turned out to be 81.6 nM and the “apparent KD of MS2 coat protein” value under setting [4] stood at 65.6 nM.

In the case of “GGUUGGCGAGGAUAUACAUGAGGAUCACCCAUGUGAGAGAAAGAAGUGAGGAAGAAAAGUAGAAGGCGUUGACG [salish99_ex3_r3_053] (puzzle: Exclusion 3)”, the “apparent KD of MS2 coat protein” value under setting [3] came to 50.6 nM, the “apparent KD of MS2 coat protein” value under setting [2] came out at 55.4 nM and the “apparent KD of MS2 coat protein” value under setting [4] was 71.7 nM.

On to “GGUUGGCGAGGAUAUACAUGAGGAUCACCCAUGUGAGAGAAGAAAGUGAGAACGAAAAGUAGAAGGCGCUGACG [salish99_ex3_r3_060] (puzzle: Exclusion 3)”, for which the “apparent KD of MS2 coat protein” value was 2.08 nM under setting [3], 43.8 nM under setting [2] and 90.2 nM under setting [4].

On to “GGUUGGCGAGGAUAUACAUGAGGAUCACCCAUGUGCGAGAAAAAAGUGAGGAAGAAAAGUAGAAGGCGCUGACG [salish99_ex3_r3_018] (puzzle: Exclusion 3)”, for which the “apparent KD of MS2 coat protein” value was 238 nM under setting [3], 49.5 nM under setting [2] and 58.2 nM under setting [4].

Turning to “GGUUGGCGAGGAUAUACAUGAGGAUCACCCAUGUGGUCCUGAAAAAAAAAAAACCUUUGUAGAAGGCGCGGGUC [salish99_ex3_r4_035] (Eterna round: R97, puzzle: Exclusion 3)”, the “apparent KD of MS2 coat protein” value was determined as 256 nM (input ligand: FMN 200 uM) and 150 nM (input ligand: none).

On to “GGUUGGCGAGGAUAUACAUGAGGAUCACCCAUGUGGUCCUGUGGCUAAAAAAACCUUUGUAGAAGGCGCGGGUC [salish99_ex3_r4_030] (Eterna round: R97, puzzle: Exclusion 3)”, for which the “apparent KD of MS2 coat protein” value by setting is: (input ligand: FMN 200 uM) 173 nM; (input ligand: none) 149 nM.

On to “GGUUGGCGAGGAUAUACAUGAGGAUCACCCAUGUGGUCCUGUGGCUGAUCAAGCCUAUGUAGAAGGCGCAAAUC [salish99_ex3_r4_012] (Eterna round: R97, puzzle: Exclusion 3)”, for which the “apparent KD of MS2 coat protein” value (input ligand: FMN 200 uM) amounted to 137 nM and the “apparent KD of MS2 coat protein” value (input ligand: none) turned out to be 257 nM.

“GGUUUGGGAGGAUAUGGUUUUAAUAACAUGAGGAUCACCCAUGUAAAUAGAUCCUCAAGGCCAGAAGGCUCAAACC [-26.1, -25.22 kcal, A 33%] (Eterna round: R97, puzzle: Exclusion 5)”: the “apparent KD of MS2 coat protein” value amounted to 212 nM (input ligand: FMN 200 uM) and 1980 nM (input ligand: none).

For the sequence “GGUUUGGGAGGAUAUGGUUUUAAUAACAUGAGGAUCACCCAUGUAAAUAGAUCCUCGAGGCCAGAAGGCUCGGGCC [-24.9, -23.72 kcal, A 28%] (Eterna round: R97, puzzle: Exclusion 5)”, the “apparent KD of MS2 coat protein” value by setting is: (input ligand: FMN 200 uM) 405 nM; (input ligand: none) 85.7 nM.

For the sequence “GUAAACGAAGAGGAUAUUUGAUAUCAUAGCUUCAAAGAAGGCUUCACAUGAGGAUCACCCAUGUGAUCUUCAAG [Mat - Exclusion 6 - JL Mod - D21] (Eterna round: R97, puzzle: Exclusion 6)”, the “apparent KD of MS2 coat protein” value was 199 nM (input ligand: FMN 200 uM) and 34.8 nM (input ligand: none).

In the case of “GUAAACGAUGAGGAUAUAUGAUAUCAAAGCAUCAUAGAAGGCAUCACAUGAGGAUCACCCAUGUGAUCUUCUUG [Mat - Exclusion 6 - JL Mod - D30] (Eterna round: R97, puzzle: Exclusion 6)”, the “apparent KD of MS2 coat protein” value runs as follows: (input ligand: FMN 200 uM) 135 nM; (input ligand: none) 31.3 nM.

As to “GUAAACGCAGAGGAUAUUUCAGAUCCUAGCUGCAAAGAAGGCUGCACAUGAGGAUCACCCAUGUGGUCCUGAAG [Mat - Exclusion 6 - Eli Mod - D2] (Eterna round: R97, puzzle: Exclusion 6)”, the “apparent KD of MS2 coat protein” value amounted to 191 nM (input ligand: FMN 200 uM) and 68.2 nM (input ligand: none).

As for “GUAAAUCAUGUAGGAUAUGCAUAGCAAAGCUAUGCAGAAGGACAUGAGGAUCACCCAUGUCAUUCCGUCUGGAGACAGACGGGA [Mat - Exclusion NG 1 - Mod of JL - D58] (Eterna round: R96, puzzle: Exclusion NG 1)”, the “apparent KD of MS2 coat protein” value came out at 270 nM (input ligand: FMN 200 uM), 22.5 nM under setting [1] and 36.7 nM (input ligand: none).

As for “GUAAUUAAUGUAGGAUAUGCAAGGCGAACCUAAGCAGAAGGACAUGAGGAUCACCCAUGUAUUGCGGUCUGCGUACAGAUCGCU [salish99_ExNG1_r4_008] (Eterna round: R96, puzzle: Exclusion NG 1)”, the “apparent KD of MS2 coat protein” value (input ligand: FMN 200 uM) worked out at 45.7 nM, the “apparent KD of MS2 coat protein” value under setting [1] amounted to 18.5 nM and the “apparent KD of MS2 coat protein” value (input ligand: none) was determined as 19.9 nM.

For the sequence “GUAAUUAUAUAGGAUAUCGAACUUAUAAUUUAACGAGAAGGAUGAACAUGAGGAUCACCCAUGUGGUAUCAUGG [JL-ex6-3.07] (puzzle: Exclusion 6)”, the “apparent KD of MS2 coat protein” value runs as follows: under setting [3], 131 nM; under setting [2], 207 nM; under setting [4], 284 nM.

Regarding “GUACAUUUAGGAUAUACGGCAGCCAAUGCAAGGGUUCUAUAACAUGAGGAUCACCCAUGUAGAAGGAGAGGGCG [Eternabot (L2) Solution 21] (Eterna round: R97, puzzle: Exclusion 2)”, the “apparent KD of MS2 coat protein” value reads like this: (input ligand: FMN 200 uM) 70.8 nM; (input ligand: none) 55.2 nM.
